Experimental data: patent US20100254992A1 (published 2010)

Legend:
human Eotaxin 1 = human Eotaxin 1 (human, UniProt P51671 24-97); assay: BioVeris solution equilibrium titration
Procedure: Solution Equilibrium Titration (SET) Method for KD Determination and Cross-Reactivity Studies Using BioVeris. Affinity determination in solution was basically performed as described in the literature (Friguet et al., 1985). In order to improve the sensitivity and accuracy of the SET method, it was transferred from classical ELISA to ECL based BioVeris technology (Haenel et al., 2005, accepted for publication in Analytical Biochemistry). 1 mg/ml goat-anti-human (Fab)₂ or goat-anti-mouse IgG, Fc fragment specific antibodies (Jackson Immuno Research) were labelled with BV-tag™ NHS-Ester (Bioveris Europe, Witney, Oxfordshire, UK) according to manufacturer's instructions. The experiments were carried out in polypropylene microtiter plates and PBS pH 7.4 with 0.5% BSA and 0.02% Tween 20 as assay buffer. Unlabeled antigen was diluted in 4ⁿ series: For human and cyno MCP-1 a concentration range of 10 pM to 40 nM and for cross-reactivity controls (Eotaxin and MCP-2) a concentration range of 40 pM to 160 nM was chosen. Wells without antigen were used to determine Smax values. After addition of 100 pM Fab or IgG (final concentration in 75 μL final volume), the mixture was incubated for 2 hours at RT. […]
Specificity Testing Using BioVeris. Beside the affinity also the specificity, especially the cross-reactivity to Eotaxin and MCP-2, was analyzed in solution equilibrium titration (SET) using BioVeris. […]

human MCP-3 = biological target: T1, human MCP-3 (human, UniProt P80098 24-99); assay: Biacore, IgG capture mode
T1 construct: also called CCL7
T1 sequence (P80098 24-99 limits assumed): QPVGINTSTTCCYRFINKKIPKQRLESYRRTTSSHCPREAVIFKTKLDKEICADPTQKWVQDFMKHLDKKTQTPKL

human Eotaxin 2 = biological target: T2, human Eotaxin 2 (human, UniProt O00175 27-104, limits assumed); assay: Biacore, IgG capture mode
T2 sequence (looked up): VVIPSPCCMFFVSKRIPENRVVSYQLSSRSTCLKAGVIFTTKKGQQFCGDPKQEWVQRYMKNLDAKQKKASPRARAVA

human Eotaxin 3 = biological target: T3, human Eotaxin 3 (human, UniProt Q9Y258 24-94); assay: Biacore, IgG capture mode
T3 sequence (looked up): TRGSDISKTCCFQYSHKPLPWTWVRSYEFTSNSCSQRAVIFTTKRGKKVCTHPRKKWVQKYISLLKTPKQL

human MCP-4 = biological target: T4, human MCP-4 (human, UniProt Q99616 24-98, limits assumed); assay: Biacore, IgG capture mode
T4 construct: also called CCL13
T4 sequence (Q99616 24-98 limits assumed): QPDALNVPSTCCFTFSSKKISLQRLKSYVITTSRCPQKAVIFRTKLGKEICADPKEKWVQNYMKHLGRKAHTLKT

Sequence of human Eotaxin 1 (P51671 24-97 limits assumed): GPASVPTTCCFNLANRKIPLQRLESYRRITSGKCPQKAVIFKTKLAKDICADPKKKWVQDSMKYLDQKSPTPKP

B1: MOR03790 IgG1 (antibody, V domains shown)
VH: QVELVQSGAEVKKPGSSVKVSCKASGGTFSSYGISWVRQAPGQGLEWMGGIIPIFGTANYAQKFQGRVTITADESTSTAYMELSSLRSEDTAVYYCARYDGIYGELDFWGQGTLVTVSS
VL: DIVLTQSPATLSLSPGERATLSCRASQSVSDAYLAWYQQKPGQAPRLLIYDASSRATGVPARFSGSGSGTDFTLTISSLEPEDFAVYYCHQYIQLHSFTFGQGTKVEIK
notes: Human IgG1; also called MOR3790 IgG1; MOR3790k IgG
binding result (human Eotaxin 1): no binding (tested: 40 pM to 160 nM) | binding result (human MCP-3): no binding (tested: 100 nM) | binding result (human Eotaxin 2): no binding (tested: 100 nM) | binding result (human Eotaxin 3): no binding (tested: 100 nM) | binding result (human MCP-4): no binding (tested: 100 nM)
